Numbering of substitutions follows the chain as printed.

The target in the experiment is T1, SARS-COV-2 RBD (SARS-COV-2, UniProt P0DTC2 319-539).
T1 construct: also called WT RBD
As to the kind of experiment: ELISA, RBD coated on plate. Background: An ELISA detects its analyte on a solid surface through an enzyme-linked reagent.

B1: C947 (antibody, V domains shown)
VH: QVQLQESGPGLVRPSGTLSLTCAVTGGSISSSDCWSWVRQPPGKGLEWIGEICHGRTSNYNPSLKSPVSISVDKSKNQFSLILSSVTAADKAVYYCARSSRFLPPLPDAFDLWGQGTMVTVSS
VL: QSVLTQPPSVSGAPGQRVTISCTGSSSNIGAGYDVHWYKQLPGTAPKLLIYGNTNRPSGVPGRFSGSKSGTSASLAITGLQAEDEADYFCQSYDTRLSVVFGGGTKLT
Molecule B1 displayed an EC50 of 2.08 ng/mL.

B2: C948 (antibody, V domains shown)
VH: EVQLVESGGGLVQPGGSLRLSCAASGFTFSRYDMHWVRQATGKGLEWVSIIGTAGDTYYPGSVKGRFTISRDNAKNSLFLQMNSLRAGDTAVYYCARANYDSSGYHNWFDPWGQGTLVTVSS
VL: DIQMTQSPSSLSASIGDRVTITCRASQNINSYLNWYQQKPGKAPKLLIYAASSLQSGVPSRFSGSGSGTDFTLTINSLQPEDFATYYCQQSYSMPSWTFGQGTKVEI
B2: the response was half-maximal at 3.26 ng/mL (EC50).

B3: C1043 (antibody, V domains shown)
VH: EVQLVESGGGLVQPGRSLRLSCAASGFIFDNYAMHWVRQAPGKGLEWVSGISWNSDSIGYADSVKGRFTISRDNAKNSLYLQMSSLRAEDTALYYCAKDLLGNYYYYTLDVWGQGTTVTVSS
VL: QSALTQPASVSGSPGQSITISCTGTSSDIGGNNYVSWYQQHPGKAPRLMIFDVSYRPSGVSNRFSGSKSGNTASLTISGLQAEDEADYYCISYTTSSTLGVFGGGTKLTVL
Molecule B3 gave an EC50 of 2.77 ng/mL.

B4: C1028 (antibody, V domains shown)
VH: QVQLVESGGGVVQPGRSLRLSCADSGFTFSSSGMHWVRQAPGKGLEWVGVISYDGGNKYYADSVKGRFTISRDNSKNTLYLQMNSLRAEDTAVYYCAKDTPGGDDIMTGWGLYGMDVWGQGTTVTVSS
VL: DIQMTQSPSSLSASVEDRVTITCRASQSISSYLNWYQQKPGKAPKLLIYAAISLQSGVPSRFSGSGSGTEFTLTISSLQPEDFATYYCQQSYTTPWAFGQGTKVEIK
Consider B4, for which the EC50 is 3.58 ng/mL.

B5: C1044 (antibody, V domains shown)
VH: QVQLQESGPGLVKPSQTLSLTCTVSGGSISSGNYYLTWIRQPAGKGLEWIGHIYTSGSTNYNPSLKSRVTISVDTSMNQFSLKLSSVTAADTAVYYCARDIPPTWYFDLWGRGTLVTVSS
VL: SYELTQPPSVSVAPGKTARITCGGNNIGSKNVHWYQQKPGQAPVLVVYDDSDRPSGIPERFSGSNSGNTATLTISRVEAGDEAGYYCQVWDSTSDHLFWVFGGGTKLTVL
Molecule B5 came in with an EC50 of 3.22 ng/mL.

B6: C1045 (antibody, V domains shown)
VH: B5 VH with G27D, L36W, T37S, T59P, N62K, V73L, M77K, S85T, V94M, P103S
VL: B5 VL with T21P, N25T, N26D, V46A, N68S, G84D, T93S, S94G, H96R, F98S
Molecule B6 showed an EC50 of 2.57 ng/mL.

B7: C1032 (antibody, V domains shown)
VH: EVQLVESGGSLVKPGGSLRLSCVASGLTFNHAWMSWVRQAPGKGLEWVGRIKSKIDGGTTDYAAPVKGRFTISRDDSKSTQYLQMNSLKTEDTAVYYCTTDCFWRLGGTTCYEHDAFDVWGQGTMVTVS
VL: DIQMTQSPSSLSASVGDRVTITCRASQAIATFLNWYQQKPGKAPKLLIYAASSLQSGVPSRFSGSGSGTDFTLTISSLQPEDFATYYCQQSYNSLHFGGGTKVEIK
As for B7, the midpoint of the response, the EC50, lay at 2.89 ng/mL.

B8: C1025 (antibody, V domains shown)
VH: EVQLVESGGGLVQPGRSLRLSCAASGFTFDDYAMHWVRQVPGKGLEWVSGVSWNGDSVGYADSMEGRFTISRDNAKNSLYLQMNSLRTEDTALYYCAKGVDYSSSSNFDFWGQGTLVTVSS
VL: DIQMTQSPSSVSASVGDRVTITCRASQGISSWLAWYQQKPGKAPKLLISLASSLQSGVPSRFSGSGSETDFTLIISSLQPEDFATYYCQQSSSFPLTFGGGTKVEIK
The molecule B8 returned an EC50 of 2.51 ng/mL.

B9: C1033 (antibody, V domains shown)
VH: QVQLVQSGAEVKKPGSSVKVSCKASGGTFSRNVISWVRQAPGQGLEWMGGIIPMFGTANYAQKFQGRVTISADESTSTAYMELSSLRSEDTAVYYCAREDFILESAPIRENSYYYYGMDVWGQGTTVTVSS
VL: EIVLTQSPGTLSLSPGERATLSCRASQSVSSNYLAWYQQKPGQAPRLLIYDASSRATGIPDRFSGSGSGTDFTLTIRRLEPEDFAVYYCQQYGGSPRTFGQGTKVEIK
As to B9, the EC50 is 3.63 ng/mL.

B10: C1035 (antibody, V domains shown)
VH: EVQLVESGGGLIQPGGSLRLSCAASGLTVSRNYMNWVRQAPGKGLEWVSVMYSGGSTFYADSVKGRFTISRDNSKNTLYLQMNSLRAEDTAVYYCARESYGMDVWGQGTTVTVSS
VL: B9 VL with V29F, N32T, D51G, R77S, G93V, G94T, R97W
For the molecule B10, the EC50 was 2.05 ng/mL.

B11: C1036 (antibody, V domains shown)
VH: B10 VH with T28I, A40V, S53A, N73D, A87P
VL: B9 VL with V29I, N32T, D51G, R77S, G93V, G94T, R97W
Molecule B11 gave an EC50 of 1.02 ng/mL.

B12: C1026 (antibody, V domains shown)
VH: QVQLVESGGGVVQPGKSLRLSCAASGFIFSSYSMHWVRQAPGKGLEWVAVVSNDGSGKFYADSVRGRFTIFRDNSKNTLYLQVSSLRAEDTAVYYCARDALTSISVLFDCWGQGTLVTVSS
VL: DIQMTQSPSSLSASLGDRVTITCRASQSISNYLNWYQQKPGKAPKLLIYGASSLQSGVPSRFSGSGSGTDFTLTISNLQPEDFATYFCQQSYSTPSVTFGGGTKVEIK
For the molecule B12, it took 2.5 ng/mL to reach a half-maximal effect (EC50).

B13: C1027 (antibody, V domains shown)
VH: EVQLVESGGGLVQPGGSLRLSCAASGFIVTTNYMSWVRQAPGKGLEWVSLIYPGGSTFYADSVEGRFTISRDNSKNTLYLQVNSLRVEDTAVYYCARDTFGRGDDHWGQGTLVTVSS
VL: DIQMTQSPSSLSASVGDRVTITCQASQDINIYLNWYQQRPGKAPKLLIYDASNLQTGVPSRFSGSGSGTDFTITISSLQPEDIATYYCQQYDNLPRSFGQGTKLEI
B13 had a concentration for a half-maximal effect (EC50) of 2.42 ng/mL.

B14: C1040 (antibody, V domains shown)
VH: QVQLVESGGGVVQPGRSLRLSCAASGFSFINYNMHWVRQAPGKGLEWVAVIWYDGSNKYYADSVKGRFTISRDNSKNTLYLQMNSLRVEDTAVYYCARDPAITEAEIDYWGQGTLVTVSS
VL: DVVMTQSPLSLPVTLGQAASISCRSSQSLVHSDGNTYLNWFQQRPGQSPRRLIYRVSNRDSGVPDRFSASGSGTDFTLKISRVEAEDVGVYYCMQGTHWPWTFGQGTKVEIK
Molecule B14 gave an EC50 of 2.08 ng/mL.

B15: C1046 (antibody, V domains shown)
VH: EVQLVQSGAEVKKPGESLKISCKGSGYSFTSYWIGWVRQMPGKGLEWMGIIYPGDSDTRYSPSFQGQVTISADKSISTAYLQWSSLKASDTAMYYCARMVTSGTYYYDNSGYSSSGPFDYWGQGTLVTVSS
VL: DIQLTQSPSSLSASVGDRVTITCRASQGISSALAWYQQKPGKAPKLLIYDASSLESGVPSRFSGSGSGTDFTLTISSLQPEDFATYYCQQFNNFGPGTKVDIK
As for B15, the EC50 was 3.8 ng/mL.

B16: C1034 (antibody, V domains shown)
VH: QLQLQESGPGLVKPSETLSLTCTVSGGSVSSNNHYWGWIRQPPGKGLEWIGSISSSGSTHHNPSLRSRVTISVDTSKNHFSLKLNSVTATDTAVYYCARVDSSGWYTGDVFDVWGQGTMVTVSS
VL: DIQMTQSPSSLSASVGDRVTITCRASQTINNYLNWYQQKPGKPPKLLIYAAFSLHSGVPSRFSGSRSGTDFTLTISSLQPEDFATYYCQHSYSTMCSFGQGTKLEIK
Consider B16, for which a half-maximal response (EC50) required 2.77 ng/mL.

B17: C1029 (antibody, V domains shown)
VH: QVQLVESGGGVVQPGRSLRLSCAASGFTFSSFGMHWVRQAPGKGLEWVAVISYDGSYKDYGDSVKGRFTISRDNSKNTLYLQMNSLRAEDTAVYYCARDSNVDTVMVTWFDYWGRGTLVTVSS
VL: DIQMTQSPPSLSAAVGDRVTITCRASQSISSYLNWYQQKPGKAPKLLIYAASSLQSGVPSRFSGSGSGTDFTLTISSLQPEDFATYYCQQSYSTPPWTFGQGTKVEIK
B17 yielded an EC50 of 2.86 ng/mL.

B18: C949 (antibody, V domains shown)
VH: QVQLQESGPGLVKPLQTLSLTCTVSGGSISNGDYYWSWIRQSPGKGLEWIGNIFYSGATYFNPSLKSRVTLSVDTSKNQFSLKLSSVTAADTAVYYCARVVRVLPAASVDCWGQGTLVTVSS
VL: QSALTQPRSVSGSPGQSVPISCTGTSSDVGGYDYVSWYQQHPGKAPKLIIYDVSERPSGVPDRFSGSKSGNTASLTISGLQAEDEATYYCCSYAGTSVMFGGGTKLTVL
Molecule B18 came in with a concentration for a half-maximal effect (EC50) of 2.33 ng/mL.

B19: C1031 (antibody, V domains shown)
VH: QLQLQESGPGLVKPSETLSLTCTVSGGSINTSTYYWGWIRQPPGKGLEWIGNIYYSGITYYNPSLKSRVTISVDTSKNQFSLKLRSVTAADTAVYYCARQHRFGSGSSELLWGQGTLVTVSS
VL: QSALTQPPSASGSPGQSVTISCTGTSSDVGSYNYVSWYQQHPGKAPKLMIYEVTKRPSGVPDRFSGSKSGNTASLTVSGLQADDEADYYCSSYAGSSNLVFGGGTKLTV
Molecule B19 gave an EC50 of 7.23 ng/mL.

B20: C1038 (antibody, V domains shown)
VH: QVQLVQSGAEVKKPGASVKVSCKASGYTFTSYYMHWVRQAPGQGLEWMGIINPSGGSTRYAQKFQGRVTMTRDTSTSTVYMELSSLRSEDTAVYYCAREGVGGTSYFDYWGQGTLVTVSS
VL: SYELTQPPSVSVAPGKTARITCGGNNIGSKSVHWYQQKPGQAPVLVVYDDSDRPSGIPERFSGSNSGNTATLTISRVEAGDEADYYCQVWDSSSDPYVFGTGTKVTVL
B20 returned an EC50 of 2.46 ng/mL.

B21: C1039 (antibody, V domains shown)
VH: QVQLVQSGAEVKKPGASVKVSCKASGYTFTSHYMHWVRQAPGQGLEWMGIINPRTRYAQMFQGRVSMNRDTSTSTVYMELSSLTSEDTAVYYCAREGLGATAYFDYWGQGTLVTVSS
VL: B20 VL with R19G, N25S, N26D, T106S
Turning to B21, the EC50 stood at 2.61 ng/mL.

B22: C951 (antibody, V domains shown)
VH: QVQLQESGPRLVKPSGTLSLTCAVSGGSISTTNWWSWVRQPPGKGLEWIGEIHHSGNTNYNPSLKSRVTISVDRSKNQFSLKLSSVTAADTAVYFCARDGGRPGDPFDIWGQGTMVTVSS
VL: QSALTQPASVSGSPGQSITISCTGTSSDVGGYNYVSWYQQHPGKAPNLMIYDVSDRPSGVSNRFSGSKSGNTASLTISGLQAEDEADYYCNSFTSNSTRVFGTGTKVTV
As for B22, the EC50 was 0.81 ng/mL.

B23: C1030 (antibody, V domains shown)
VH: EVQLVESGGGLVQPGGSLRLSCEASGVIVSSNYMNWVRQAPGKGPEWVSVLYAGGSTFYADSVKGRFTISRDDSKNTLFLQMNNLRAEDTAVYFCARDLIAFGMDVWGQGTTVTVSS
VL: DIQLTQSPSFLSASVGDRVTITCRASQGINSDLAWYQQKPGKAPKLLIYGASTLQSGVPSRFSGSGSGTEFSLTVSSLQPEDFATYYCQQLNSYRRFGGGTKVEIK
In turn, B23 yielded an EC50 of 2.78 ng/mL.

What is called EC50 is the concentration giving half of the maximal effect. The low end stands for a more potent agent, the high end for a less potent agent.

The values are drawn from US20240218057A1 (ROCKEFELLER UNIVERSITY, published 2024).
